In patent US20200141935A1, “SYSTEM, METHOD, APPARATUS AND DIAGNOSTIC TEST FOR PREGNANCY” (BARCELONA INSTITUTE FOR GLOBAL HEALTH, priority 2017, published 2020):

Legend:
IgG [1] = experiment: Multiplex bead-based immunoassay (Luminex): IgG levels (nMFI) against antigens, compared between groups; type: binding, pregnant women; conditions: for Immunoreactivity: recognition by IgGs at levels above BSA recognition: 641 pregnant Mozambican women 2003-2012, mean nMFI above mean BSA nMFI plus 3 SD; for Infection during pregnacy Infection vs no-infection ratio (95% CI): Mozambican women followed 2011-2012; for Exposure dependence Decrease 2010 vs 2003-2005 Ratio (95% CI) / Exposure dependence Increase 2011-2012 vs 2010 Ratio (95% CI): nMFI ratio at delivery, Mozambique, adjusted by parity, age, treatment and HIV; for PW Mz vs PW Bcn Ratio (95% CI) / Parasite density Low vs High ratio (95% CI): nMFI ratio; for PW Mz vs PW Bcn Ratio (95% CI): pregnant Mozambican women vs pregnant Spanish women (N=49); for Parasite density Low vs High ratio (95% CI): below or above 200 genomes per microliter
Excerpt: (§1) Two multiplex suspension array panels were constructed to quantify IgG responses against P. falciparum recombinant proteins and synthetic peptides, using the xMAP™ technology and the Luminex® 100/200™ System (Luminex® Corp., Austin, Tex.). MagPlex® microspheres (magnetic carboxylated polystyrene microparticles, 5.6 μm) with different spectral signatures were selected for each protein (DBL3X, DBL5ϵ, DBL6ϵ, AMA1 and MSP119), peptides (25 VAR2CSA peptides and pCSP), tetanus toxin and bovine serum albumin (BSA). Antigens were covalently coupled to beads following a modification of the Luminex® Corporation protocol. Protein and peptide multiplex arrays were prepared by pooling together equal volumes of coated beads. Plasma samples or the product of DBS elution were analyzed in duplicate at dilution 1:400 for the protein array and 1:100 for the peptide array. A hyperimmune plasma pool composed by 23 plasmas from malaria infected Mozambican pregnant women (HIP-VAR2CSA) was included in each assay plate, in addition to blanks (wells without sample) to assess background levels. A minimum of 50 microspheres were read per spectral signature and results were exported as crude median fluorescent intensity ([…]). Duplicates were averaged and background MFIs were subtracted. A total of 224 plates were analyzed and the intra-assay variation (mean CV of replicates from 20 plasma samples per plate) ranged from 1.4% to 7.3% for the protein array and from 2.5% to 12.4% for the peptide array. The inter-assay variation (variability of positive pool [HIP-VAR2CSA] between 224 plates) was 5% for the protein array and 26% for the peptide array. Results were normalized (nMFI) to account for plate-to-plate variation by […] the background subtracted MFI of each sample with the value of the positive pool in the same plate and dividing by the median of positive pools in all plates.
(§2) Antibodies were eluted from DBS from Gabon, […] and Kenya, as previously described. Briefly, to achieve a concentration of eluted blood proteins equivalent to a 1:50 plasma dilution antibodies were eluted from four spots of approximately 3 mm in diameter with 200 μl Luminex® assay buffer (1% BSA, 0.05% sodium azide in filtrated PBS [Phosphate-buffered saline]). […]. Controls blood drops were artificially prepared using fresh erythrocytes (blood type 0, assuming a hematocrit approximately of 50%) and freeze plasma from 49 Spanish pregnant women. Filter papers were stored avoiding humidity at −20° C. in Barcelona.
(§3) Presence or absence of antibodies was defined by finite mixture models (FMM) for pregnancy-specific antigens (VAR2CSA peptides and recombinant domains) and by the mean plus 3 standard deviation (SD) of IgG response from pregnant women from Barcelona for general malaria antigens (AMA1, MSP119, and pCSP).
(§4) Data was fitted to a normal distribution by logarithmic transformation of nMFIs. Participant's baseline characteristics and parasitological outcomes were compared between study times and areas by univariate analysis (Fisher's tests for binary outcomes or t-Student test for continuous outcomes). Responses were considered not restricted to malaria when seroprevalences were 5% or high among Spanish pregnant women.
Linear regression models were used to compare antibody levels from Mozambican and Spanish pregnant women. The capacity of antibody levels to mimic malaria trends in Mozambique was analyzed by linear regression models (2010 was compared with 2003-2005 corresponding to a trend of malaria decrease and 2011-2012 with 2010 to a trend of increase) adjusted by treatment, parity, age and HIV.
The impact of P. falciparum infection during pregnancy on antibodies at delivery was assessed in linear regression models adjusted by age, parity, HIV and treatment. Changes in antibody levels due to parasite density (below or above 200) were assessed by linear regression models adjusted by age, parity, HIV and treatment. […]

IgG [2] = experiment: Multiplex bead-based immunoassay: seroprevalence (finite mixture models or negative control cutoff); type: binding, pregnant women; conditions: for SeroPrev Delivery %: 239 pregnant Mozambican women followed 2011-2012; for Seroprevalence MQ (%): IPTp with mefloquine; for Seroprevalence K (%): Kenya; for Seroprevalence K (%) / Seroprevalence M (%) / Seroprevalence B (%) / Seroprevalence G (%): at delivery; for MQ (OR): Placebo as reference; for M (OR) / Seroprevalence M (%): Mozambique; for Seroprevalence PL (%): Placebo group; for Seroprevalence A (%) / A (OR): anemia; for A (OR): Non-A as reference; for Seroprevalence Non-A (%): non anemia; for Seroprevalence B (%): Benin; for G (OR) / Seroprevalence G (%): Gabon; for Seroprevalence SP (%): IPTp with sulfadoxine-pyrimethamine; for SP (OR): MQ as reference; for SeroPrev PW Bcn (%): seroprevalence among pregnant Spanish women never exposed to malaria; for Decrease (OR): seroprevalence odds ratio 2010 vs 2003/5, Mozambique; for Decrease (OR) / Increase (OR): adjusted; for Increase (OR): seroprevalence odds ratio 2011/12 vs 2010, Mozambique
Excerpt: as §1, §2, §3, §4
Seroprevalences between countries (Benin, Gabon and Mozambique for HIV-uninfected and Kenya and Mozambique for HIV-infected), between IPTp intervention group (MQ vs SP for HIV-uninfected and MQ vs Placebo for HIV infected) and anemia status were compared by logistic regression models adjusted by parity, age and treatment.
The modification of the associations by HIV infection or parity was assessed by including interaction terms into the regression models.

IgG [3] = experiment: Antibody dynamics during pregnancy (time to double, half-life, sero-reversion) from bead-based immunoassay; type: binding, pregnant Mozambican women; conditions: for Antibody dynamics Time to double weeks (95% CI): women with P. falciparum infection on follow-up, log-linear mixed-effects model
Excerpt: as §1
The adjusted effect of infection on antibody levels was analyzed using log-linear mixed-effects regression models incorporating Gaussian random intercepts. […] Time to double the antibody levels (T2x) and half-lives were calculated in weeks from the estimated rates and the boundaries at 95% confidence interval obtained from mixed-effects models for subjects suffering a P. falciparum infection at follow-up independent of antibody status at recruitment (Ab[−or+]/Pf+) and subjects seropositive at recruitment and no infection detected on follow-up (Ab+/Pf−), respectively. In situations that the increase rate is a negative value (rate below 1) or the decay rate is a positive value (rate above 1), the calculated T2x or half-life was reported as infinity. Similarly, the time to sero-reversion was calculated for these subjects using the ratio of the seropositivity cutoff by the average antibody titers at recruitment as decay, i.e. how many times the average titers need to be reduced to be equal the cutoff.

[4] = HIV infected, Kenya as reference
[5] = HIV uninfected, Benin as reference
[6] = Mozambican pregnant women at delivery

B1: pcsp: circumsporozoite peptide of 64 aminoacids (NVDP[NANP]15) (peptide)
peptide: NVDPNANPNANPNANPNANPNANPNANPNANPNANPNANPNANPNANPNANPNANPNANPNANP
- Immunoreactivity: recognition by IgGs at levels above BSA recognition (IgG [1]): above BSA recognition
- Infection during pregnacy Infection vs no-infection ratio (95% CI) (IgG [1]; nMFI at delivery, adjusted): 3.1 (1.75; 5.49)
- Exposure dependence Decrease 2010 vs 2003-2005 Ratio (95% CI) (IgG [1]): 0.49 (0.34; 0.71)
- Exposure dependence Increase 2011-2012 vs 2010 Ratio (95% CI) (IgG [1]): 1.1 (0.80; 1.52)
- PW Mz vs PW Bcn Ratio (95% CI) (IgG [1]): 8.2 (4.84; 13.87)
- Parasite density Low vs High ratio (95% CI) (IgG [1]; adjusted): 1.81 (0.75; 4.37)
- SeroPrev Delivery % (IgG [2]): 64%
- Seroprevalence MQ (%) (IgG [2]; HIV infected): 12%
- Seroprevalence K (%) (IgG [2]; HIV infected): 21%
- MQ (OR) (IgG [2]; HIV infected): 0.69 (0.44; 1.07)
- M (OR) (IgG [2]; [4]): 0.41 (0.26; 0.64)
- Seroprevalence M (%) (IgG [2]; HIV infected): 10%
- Seroprevalence PL (%) (IgG [2]; HIV infected): 17%
- Seroprevalence A (%) (IgG [2]; HIV infected): 12%
- A (OR) (IgG [2]; HIV infected): 0.86 (0.52; 1.41)
- Seroprevalence Non-A (%) (IgG [2]; HIV infected): 17%
- Seroprevalence B (%) (IgG [2]; HIV uninfected): 44%
- G (OR) (IgG [2]; [5]): 0.37 (0.24; 0.57)
- Seroprevalence G (%) (IgG [2]; HIV uninfected): 23%
- Seroprevalence MQ (%) (IgG [2]; HIV uninfected): 31%
- Seroprevalence SP (%) (IgG [2]; HIV uninfected): 34%
- M (OR) (IgG [2]; [5]): 0.19 (0.14; 0.26)
- Seroprevalence M (%) (IgG [2]; HIV uninfected): 13%
- SP (OR) (IgG [2]; HIV uninfected): 1.08 (0.84; 1.38)
- Seroprevalence A (%) (IgG [2]; HIV uninfected): 34%
- A (OR) (IgG [2]; HIV uninfected): 1.19 (0.94; 1.51)
- Seroprevalence Non-A (%) (IgG [2]; HIV uninfected): 31%
- Seroprevalence 2003/4 (%) (IgG [2]; [6]): 48%
- Seroprevalence 2005 (%) (IgG [2]; [6]): 57%
- Seroprevalence 2010 (%) (IgG [2]; [6]): 36%
- Seroprevalence 2011 (%) (IgG [2]; [6]): 40%
- Seroprevalence 2012 (%) (IgG [2]; [6]): 46%
- SeroPrev PW Bcn (%) (IgG [2]): 10%
- Decrease (OR) (IgG [2]): 0.43 (0.27; 0.69)
- Increase (OR) (IgG [2]): 1.19 (0.80; 1.78)
- Antibody dynamics Time to double weeks (95% CI) (IgG [3]): 51.33 (22.30; ∞) weeks

B2: MSP119: recombinant merozoite surface protein-1, 19-kDa, from 3D7 strain (protein)
chain: NISQHQCVKKQCPENSGCFRHLDEREECKCLLNYKQEGDKCVENPNPTCNENNGGCDADATCTEEDSGSSRKKITCECTKPDSYPLFDGIFCS
- Immunoreactivity: recognition by IgGs at levels above BSA recognition (IgG [1]): above BSA recognition
- Infection during pregnacy Infection vs no-infection ratio (95% CI) (IgG [1]; nMFI at delivery, adjusted): 3.69 (1.83; 7.46)
- Parity MG vs PG ratio (95% CI) (IgG [1]; nMFI at delivery, multigravid vs primigravid Mozambican women, adjusted): 1.6 (0.6; 4.29)
- Exposure dependence Decrease 2010 vs 2003-2005 Ratio (95% CI) (IgG [1]): 0.43 (0.28; 0.65)
- Exposure dependence Increase 2011-2012 vs 2010 Ratio (95% CI) (IgG [1]): 0.88 (0.60; 1.30)
- PW Mz vs PW Bcn Ratio (95% CI) (IgG [1]): 85.07 (46.72; 154.9)
- Parasite density Low vs High ratio (95% CI) (IgG [1]; adjusted): 2.55 (0.98; 6.63)
- SeroPrev Delivery % (IgG [2]): 89%
- Seroprevalence MQ (%) (IgG [2]; HIV infected): 85%
- Seroprevalence K (%) (IgG [2]; HIV infected): 88%
- MQ (OR) (IgG [2]; HIV infected): 0.84 (0.54; 1.32)
- M (OR) (IgG [2]; [4]): 0.73 (0.46; 1.16)
- Seroprevalence M (%) (IgG [2]; HIV infected): 85%
- Seroprevalence PL (%) (IgG [2]; HIV infected): 87%
- Seroprevalence A (%) (IgG [2]; HIV infected): 85%
- A (OR) (IgG [2]; HIV infected): 0.90 (0.56; 1.45)
- Seroprevalence Non-A (%) (IgG [2]; HIV infected): 87%
- Seroprevalence B (%) (IgG [2]; HIV uninfected): 99%
- G (OR) (IgG [2]; [5]): 0.08 (0.04; 0.18)
- Seroprevalence G (%) (IgG [2]; HIV uninfected): 84%
- Seroprevalence MQ (%) (IgG [2]; HIV uninfected): 94%
- Seroprevalence SP (%) (IgG [2]; HIV uninfected): 94%
- M (OR) (IgG [2]; [5]): 0.13 (0.07; 0.26)
- Seroprevalence M (%) (IgG [2]; HIV uninfected): 89%
- SP (OR) (IgG [2]; HIV uninfected): 1.02 (0.63; 1.66)
- Seroprevalence A (%) (IgG [2]; HIV uninfected): 94%
- A (OR) (IgG [2]; HIV uninfected): 0.95 (0.60; 1.51)
- Seroprevalence Non-A (%) (IgG [2]; HIV uninfected): 95%
- Seroprevalence in Tanzania (IgG [2]; HIV-uninfected women, area of Tanzania where no malaria infection was observed): 48%
- Seroprevalence in 2003-2005 (IgG [2]; Mozambican pregnant women at delivery, 2003-2005 pooled): 94%
- Seroprevalence 2003/4 (%) (IgG [2]; [6]): 90%
- Seroprevalence 2005 (%) (IgG [2]; [6]): 99%
- Seroprevalence 2010 (%) (IgG [2]; [6]): 94%
- Seroprevalence 2011 (%) (IgG [2]; [6]): 84%
- Seroprevalence in 2011-2012 (IgG [2]; Mozambican pregnant women at delivery, 2011-2012 pooled): 87%
- Seroprevalence 2012 (%) (IgG [2]; [6]): 90%
- SeroPrev PW Bcn (%) (IgG [2]): 4%
- Decrease (OR) (IgG [2]): 0.81 (0.31; 2.14)
- Increase (OR) (IgG [2]): 0.37 (0.19; 0.74)
- Antibody dynamics Sero-revertion weeks (95% CI) (IgG [3]; time to sero-negativisation, seropositive at recruitment, no infection on follow-up): 385.42 (207.36; 2728.50) weeks
- Antibody dynamics Time to double weeks (95% CI) (IgG [3]): 31.69 (15.65; ∞) weeks
